One experiment addresses 野生型SARS-CoV-2假病毒的刺突Δ19 (SARS-CoV-2, UniProt P0DTC2 14-1254). The experiment is described as follows: cell-based or functional assay.
In experiment [1] the target is SARS-CoV-2刺突N501Y+D614G假病毒的刺突Δ19 (SARS-CoV-2, UniProt P0DTC2 14-1254). Nature of the experiment: cell-based or functional assay.
In experiment [2] the target is 真SARS-CoV-2英国变异株(B.1.1.7)病毒的刺突 (SARS-CoV-2). The experiment is described as follows: cell-based or functional assay.
Experiment [3] has as its target SARS-CoV-2 K417N+E484K+N501Y+D614G假病毒的刺突Δ19 (SARS-CoV-2, UniProt P0DTC2 14-1254). Nature of the experiment: cell-based or functional assay.
Experiment [4] concerns the target SARS-CoV-2 B.1.617.2假病毒的刺突Δ19 (SARS-CoV-2). The experiment is described as follows: cell-based or functional assay.
The next experiment has as its target T1, SARS-CoV-2 S-RBD (SARS-CoV-2, UniProt P0DTC2 319-541).
T1 construct: also called WT S-RBD; 野生型(WT)S-RBD
Nature of the experiment: BLI, biotinylated S-RBD on SA sensor, 1:1 Langmuir model.

The next experiment deals with T2, K417N+E484K+N501Y RBD (SARS-CoV-2, UniProt P0DTC2 319-541).
T2 construct: also called B.1.351S-RBD; B.1.351的刺突RBD
Nature of the experiment: BLI, biotinylated B.1.351 S-RBD on SA sensor, 1:1 Langmuir model.

B1: S-D4 (antibody, V domains shown)
VH: QVQLQESGGGVVQPGRSLRLSCEVSGFTFSDYGMHWVRQAPGKGLEWVAVIWSEGSTEYYADSVKGRFTISRDNSKDTLYLQMNSLRAEDTAVYYCARPGYPTSTDRSPAAAGARQYYYYGMDVWGQGTTVTVSS
VL: NFMLTQPHSVSESPGKTVTISCTRSGGSGAANYVQWYQQRPGSSPTTLIYEDSRRPPGVPDRFSGSVDTSSNSASLTISGLQTEDEADYYCQSYDSSNHVVFGGGTKLTVLG
notes: also called S-D4二聚体; S-D4 IgG4
With B1, in the experiment with 野生型SARS-CoV-2假病毒的刺突Δ19, the “NT50, 假病毒中和 (野生型PSV)” value was 0.48 nM. Besides, the “NT50, 假病毒中和 (N501Y+D614G PSV)” value in experiment [1] was determined as 0.042 nM. Also, the “NT50, 真病毒中和 (B.1.1.7)” value in experiment [2] turned out to be 1.88 nM. Moreover, in experiment [3], the “NT50(B.1.351)” value is 0.66 nM. In addition, in experiment [4], the “NT50(B.1.617.2)” value was 0.24 nM.

B2: S-E6 (antibody, V domains shown)
VH: QVTLRESGPGLVKPSETLSLTCAVSGGSLSSVNYYWSWIRQHPGKGLEWIGYIYYSGSTNYNPSLKSRVTMSLDTSKNQFSLKLSSVTAADTAVYYCATPGAIMGALHIWGQGTLVTVSS
VL: QAVLTQPSSASSTPGQRVIISCSGSSSNIGSNTVSWYQQVPGAAPKLLIYFDYRRPSGVPDRFSGTRSGTSASLGISGLQSEDEADYYCAAWDDSLSAWVFGRGTKLTVLG
notes: also called S-E6二聚体; 二聚体S-E6
On to B2, for which the “NT50, 假病毒中和 (野生型PSV)” value with 野生型SARS-CoV-2假病毒的刺突Δ19 was determined as 0.025 nM. Also, in experiment [1], the “NT50, 假病毒中和 (N501Y+D614G PSV)” value was determined as 0.021 nM. In experiment [2], the “NT50, 真病毒中和 (B.1.1.7)” value is 1.15 nM. For the same molecule, in experiment [3], the “NT50(B.1.351)” value was 0.32 nM. The “NT50(B.1.617.2)” value in experiment [4] amounted to 0.065 nM.

B3: S-E6三聚体 (other)
heavy (part 1 of 2): QVTLRESGPGLVKPSETLSLTCAVSGGSLSSVNYYWSWIRQHPGKGLEWIGYIYYSGSTNYNPSLKSRVTMSLDTSKNQFSLKLSSVTAADTAVYYCATPGAIMGALHIWGQGTLVTVSS
heavy (part 2 of 2): GGGGSGGGGSGGGGSPGSGYIPEAPRDGQAYVRKDGEWVLLSTFLGHHHHHH
light: QAVLTQPSSASSTPGQRVIISCSGSSSNIGSNTVSWYQQVPGAAPKLLIYFDYRRPSGVPDRFSGTRSGTSASLGISGLQSEDEADYYCAAWDDSLSAWVFGRGTKLTVLG
notes: also called 三聚体S-E6
As for B3, in experiment [4], the “NT50(B.1.617.2)” value came out at 0.007 nM. For the same molecule, the Kd with SARS-CoV-2 S-RBD was 0.0101 nM; in the experiment with K417N+E484K+N501Y RBD, 0.58 nM.

B4: S-B8 (antibody, V domains shown)
VH: QVQLVQSGGGLIQPGGSLRLSCAASGFTVSLSHMNWVRQAPGKGLEWVSITYGDGNSDYADSVKGRFTISRDNSKNTLYLQMNSLRAEDTAVYYCAREYYYGMDVWGQGTTVTVSS
VL: not shown
notes: also called S-B8二聚体
On to B4, for which the “NT50, 假病毒中和 (N501Y+D614G PSV)” value in experiment [1] came out at 0.53 nM. The “NT50(B.1.351)” value in experiment [3] is 1.2 nM. For the same molecule, the “NT50(B.1.617.2)” value in experiment [4] is 0.37 nM.

B5: S-B8三聚体 (other)
heavy (part 1 of 2): QVQLVQSGGGLIQPGGSLRLSCAASGFTVSLSHMNWVRQAPGKGLEWVSITYGDGNSDYADSVKGRFTISRDNSKNTLYLQMNSLRAEDTAVYYCAREYYYGMDVWGQGTTVTVSS
heavy (part 2 of 2): GGGGSGGGGSGGGGSPGSGYIPEAPRDGQAYVRKDGEWVLLSTFLGHHHHHH
light: not shown
B5: in experiment [3], the “NT50(B.1.351)” value turned out to be 0.35 nM. In addition, the “NT50(B.1.617.2)” value in experiment [4] is 0.15 nM.

Values taken from patent publication CN116406375A (UNIV SHANGHAI TECHNOLOGY, dated 2023).
